According to patent US20030059419:
Numbering of substitutions follows the chain as printed. Names and notes keep the numbering of the source.

T1: GST-I-TRAF (human I-TRAF as a chimera protein with glutathione S transferase, purified from E. coli), Q92844
T1 chain: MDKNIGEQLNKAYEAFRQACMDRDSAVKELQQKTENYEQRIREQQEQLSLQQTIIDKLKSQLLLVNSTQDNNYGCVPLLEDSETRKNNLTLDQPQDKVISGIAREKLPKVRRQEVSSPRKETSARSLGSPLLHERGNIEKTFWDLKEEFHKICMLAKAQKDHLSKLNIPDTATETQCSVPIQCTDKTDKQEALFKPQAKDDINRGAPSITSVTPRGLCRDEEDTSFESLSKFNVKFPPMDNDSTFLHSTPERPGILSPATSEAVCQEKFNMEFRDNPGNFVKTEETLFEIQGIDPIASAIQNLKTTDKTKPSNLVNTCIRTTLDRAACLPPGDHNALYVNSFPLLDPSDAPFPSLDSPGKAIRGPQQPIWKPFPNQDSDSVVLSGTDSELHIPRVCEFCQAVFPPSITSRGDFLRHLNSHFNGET

T2: Myc-I-TRAF (human I-TRAF, full length, with a Myc epitope added to the N-terminal), Q92844
T2 chain: T1 chain

B1: Flag-IKK-i (human IKK-i with a Flag epitope linked to the N-terminal) (protein)
chain: MQSTANYLWHTDDLLGQGATASVYKARNKKSGELVAVKVFNTTSYLRPREVQVREFEVLRKLNHQNIVKLFAVEETGGSRQKVLVMEYCSSGSLLSVLESPENAFGLPEDEFLVVLRCVVAGMNHLRENGIVHRDIKPGNIMRLVGEEGQSIYKLTDFGAARELDDDEKFVSVYGTEEYLHPDMYERAVLRKPQQKAFGVTVDLWSIGVTLYHAATGSLPFIPFGGPRRNKEIMYRITTEKPAGAIAGAQRRENGPLEWSYTLPITCQLSLGLQSQLVPILANILEVEQAKCWGFDQFFAETSDILQRVVVHVFSLSQAVLHHIYIHAHNTIAIFQEAVHKQTSVAPRHQEYLFEGHLCVLEPSVSAQHIAHTTASSPLTLFSTAIPKGLAFRDPALDVPKFVPKVDLQADYNTAKGVLGAGYQALRLARALLDGQELMFRGLHWVMEVLQATCRRTLEVARTSLLYLSSSLGTERFSSVAGTPEIQELKAAAELRSRLRTLAEVLSRCSQNITETQESLSSLNRELVKSRDQVHEDRSIQQIQCCLDKMNFIYKQFKKSRMRPGLGYNEEQIHKLDKVNFSHLAKRLLQVFQEECVQKYQASLVTHGKRMRVVHETRNHLRLVGCSVAACNTEAQGVQESLSKLLEELSHQLLQDRAKGAQASPPPIAPYPSPTRKDLLLHMQELCEGMKLLASDLLDNNRIIERLNRVPAPPDV
B2: mutant IKK-i (K38A), Flag-tagged human IKK-i with the No. 38 lysine replaced by alanine (protein)
chain: B1 chain with K38A

Tests used:
[1] = target: GST-IκB-αN protein (AA), GST-IκB-αN with the No. 32 and No. 36 serine residues replaced by alanine [GST: P08515]
[2] = target: GST-IκB-αN protein (WT), amino acids 1-72 of IκB-α fused to GST [GST: P08515]
[3] = target: T1, GST-I-TRAF (human I-TRAF as a chimera …)
[4] = target: T2, Myc-I-TRAF (human I-TRAF, full length, …)
[5] = target: Myc-I-TRAF (1-247) defective mutant, human I-TRAF amino acids No. 1-247 with N-terminal Myc, Q92844

Protein | in vitro kinase assay ([γ-32P]ATP, 30° C., 20 minutes, SDS-PAGE, autoradiography) [1] | in vitro kinase assay ([γ-32P]ATP, 30° C., 20 minutes, SDS-PAGE, autoradiography) [2] | in vitro kinase assay with purified GST-I-TRAF (1.0 µg) added to the anti-Flag immunoprecipitate [3] | in vitro kinase assay ([γ-32P]ATP) on immunoprecipitates [4] | in vitro kinase assay on immunoprecipitates, I-TRAF deletion mutants [4] | in vitro kinase assay on immunoprecipitates, I-TRAF deletion mutants [5]
B1 | IKK-i did not phosphorylate GST-IκB-αN protein (AA) | IKK-i phosphorylated GST-IκB-αN protein (WT) | in cells in which Flag-IKK-i was expressed, phosphorylation of GST-I-TRAF was observed | Bands of phosphorylated Myc-I-TRAF were detected in both of immunoprecipitates with anti-Flag antibody (lane 2) or anti-Myc antibody (lane 4) | phosphorylations of FL (lanes 4 and 8) and Myc-I-TRAF (1-247)(lanes 2 and 6) were confirmed | phosphorylations of FL (lanes 4 and 8) and Myc-I-TRAF (1-247)(lanes 2 and 6) were confirmed
B2 | – | K38A-IKK-i did not phosphorylate GST-IκB-αN protein (WT) | No phosphorylation was observed with the K38A mutant | – | – | –
